By KM is commonly meant the substrate concentration at which the rate is half of its maximum. What is called kcat is the number of substrate molecules converted per active site and unit of time at saturation.

Data on two proteins can be found in US20030186258.

The target of data set [1] is T1, Z-L-tyrosine-L-lysine-L-arginine-p-nitroanilide.
T1 chain: YKR

Data set [2] concerns the target fusion protein (peptide portion)-(Lys-Arg)-(h-GH), P01241.

Chain of fusion protein (peptide portion)-(Lys-Arg)-(h-GH), P01241 (P01241 whole entry, looked up, the tested form may be a part): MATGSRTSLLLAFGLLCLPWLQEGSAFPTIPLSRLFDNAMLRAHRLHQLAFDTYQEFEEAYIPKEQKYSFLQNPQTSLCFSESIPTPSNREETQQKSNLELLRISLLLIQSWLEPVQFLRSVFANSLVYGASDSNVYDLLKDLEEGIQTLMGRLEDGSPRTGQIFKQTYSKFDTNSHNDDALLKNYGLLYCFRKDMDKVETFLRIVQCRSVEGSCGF

B1: ss-Kex2-C613 (soluble secreted Kex2 endoprotease of Saccharomyces cerevisiae truncated at amino acid 613) (protein)
chain: APPMDSSLLPVKEAEDKLSINDPLFERQWHLVNPSFPGSDINVLDLWYNNITGAGVVAAIVDDGLDYENEDLKDNFCAEGSWDFNDNTNLPKPRLSDDYHGTRCAGEIAAKKGNNFCGVGVGYNAKISGIRILSGDITTEDEAASLIYGLDVNDIYSCSWGPADDGRHLQGPSDLVKKALVKGVTEGRDSKGAIYVFASGNGGTRGDNCNYDGYTNSIYSITIGAIDHKDLHPPYSEGCSAVMAVTYSSGSGEYIHSSDINGRCSNSHGGTSAAAPLAAGVYTLLLEANPNLTWRDVQYLSILSAVGLEKNADGDWRDSAMGKKYSHRYGFGKIDAHKLIEMSKTWENVNAQTWFYLPTLYVSQSTNSTEETLESVITISEKSLQDANFKRIEHVTVTVDIDTEIRGTTTVDLISPAGIISNLGVVRPRDVSSEGFKDWTFMSVAHWGENGVGDWKIKVKTTENGHRIDFHSWRLKLFGESIDSSKTETFVFGNDKEEVE
As for B1, in data set [1], the KM turned out to be 56.8 µM, the kcat came out at 2280 s⁻¹ and the kcat/KM (µM^-1 × min^-1) was 12400.

B2: ss-Kex1-C600 (soluble secreted Kex1 endoprotease of Kluyveromyces lactis truncated at amino acid 600) (protein)
chain: LPIGDSSMEQIQNARILFNISDPLFDQQWHLINPNYPGNDVNVTGLWKENITGYGVVAALVDDGLDYENEDLKDNFCVEGSWDFNDNNPLPKPRLKDDYHGTRCAGEIAAFRNDICGVGVAYNSKVSGIRILSGQITAEDEAASLIYGLDVNDIYSCSWGPSDDGKTMQAPDTLVKKAIIKGVTEGRDAKGALYVFASGNGGMFGDSCNFDGYTNSIFSITVGAIDWKGLHPPYSESCSAVMVVTYSSGSGNYIKTTDLDEKCSNTHGGTSAAAPLAAGIYTLVLEANPNLTWRDVQYLSILSSEEINPHDGKWQDTAMGKRYSHTYGFGKLDAYNIVHMAKSWINVNPQGWLYLPTIVEKQSISNSDEVIESTVSVSAEEFKQNNLKRLEHVTVTVDIDAPYRGHVLVDLISPDGVTSTLATARRLDKNRYGFQNWTFMSVAHWGSSGVGSWKLKVKSTHDNEIVTLKSWRLKMFGETIDAKKAKVISYGNDKEDAE
Consider B2, for which, in data set [2], the “reaction yield of hydrolysis (RP-HPLC)” value is listed as “a reaction yield higher than 95%” and the “specificity of the hydrolysis (NH2-terminal sequence of the reaction product)” value is reported as “gave the expected sequence for h-GH”. Also, in data set [1], the KM amounted to 61.4 µM, the kcat came to 3070 s⁻¹, the kcat/KM (µM^-1 × min^-1) turned out to be 3000 and the specific activity result is recorded as “a specific activity of approximately 100 U/mg”.
